From US8187838B2, “β-Galactoside-α2, 6-sialyltransferase, a gene encoding thereof, and a method for producing thereof” (Japan Tobacco Inc., priority 2006, dated 2012)
“Also recorded” adds a separate entry of the source.

What was measured:
[1] = Sialyltransferase activity of samples after each purification step; assay type: biochemical; details: for Specific activity (U/mg) / Total activity (U): cacodylate pH 5, 5 minutes, 30° C.
Procedure: (§1) Sialyltransferase activity was measured as described in J. Biochem., 120, 104-110 (1996) (which is hereby incorporated by reference in its entirety). More specifically, the enzymatic reaction was accomplished by using CMP-NeuAc (70 nmol, containing about 20,000 cpm CMP-NeuAc in which NeuAc was labeled with ^14C; NeuAc represents N-acetylneuraminic acid) as a glycosyl donor substrate, lactose (1.25 μmol) as a glycosyl acceptor substrate, NaCl added to give a concentration of 0.5 M, and the enzyme-containing reaction solution (30 μl) prepared as described above. The enzymatic reaction was carried out at 25° C. for about 10 to 180 minutes. After completion of the reaction, 1.97 ml of 5 mM phosphate buffer (pH 6.8) was added to the reaction solution, which was then applied to a Dowex 1×8 (PO4^3− form, 0.2×2 cm, BIO-RAD) column. The radioactivity was measured for the reaction product, i.e., sialyllactose contained in the eluate (0 to 2 ml) from this column to calculate the enzyme activity. One enzyme unit (1 U) is defined as the amount of enzyme required to transfer 1 micromole of sialic acid per minute.
(§2) The enzyme activity was measured by the method reported in J. Biochem. 120, 104-110 (1996), in the same manner as described in Example 1 under conditions as indicated in the footnote of Table 3-1. For protein quantification, a Coomassie Protein Assay Reagent (PIERCE) was used according to the instruction manual attached thereto. One enzyme unit (1U) was defined as the amount of enzyme required to transfer 1 micromole of sialic acid per minute.
Reaction time: 5 minutes Reaction temperature: 25° C.
as §2, with “3-2.” for “3-1.”
(§3) Reaction Conditions Reaction composition:
Reaction time: 5 minutes Reaction temperature: 30° C.

[2] = Sialyltransferase activity in homogenate of E. coli carrying the JT-ISH-224 gene clones (14C-NeuAc transfer to lactose); assay type: biochemical; details: crude enzyme solution from E. coli TB1
Procedure: as §1
An induction experiment of protein expression was performed on the five clones obtained in (3) above (i.e., ISH224-N0C0/pTrc, ISH224-N1C0/pTrc, ISH224-N2C0/pTrc, ISH224-N3C0/pTrc and ISH224-N3.1C0/pTrc). A single colony of E. coli TB1 having the expression vector pTrc99A carrying each clone was inoculated into LB medium (6 ml) containing an antibiotic, ampicillin (final concentration 100 μg/mL), and pre-cultured at 30° C. to about A600=0.5, followed by addition of IPTG (isopropyl-β-D(−)-thiogalactopyranoside, Wako Pure Chemical Industries, Ltd., Japan) at a final concentration of 1 mM. After culturing with shaking at 30° C. for an additional 4 hours, the cells in 4 ml culture solution were collected by centrifugation. These cells were suspended in 200 μl of 20 mM Bis-Tris buffer (pH 7.0) containing 0.336% Triton® X-100 and 0.5 M sodium chloride, and ultrasonically homogenized under ice cooling. The resulting homogenate was defined as a crude enzyme solution, diluted 200-fold with 20 mM cacodylate buffer (pH 5.0) containing 0.336% Triton® X-100, and then provided for activity measurement. The reaction was carried out in duplicate. The reaction conditions are as indicated in the footnotes of Tables 1-1 and 1-2.
as §3
Reaction time: 2 minutes Reaction temperature: 30° C.

[3] = after MONO Q (purified fraction)

B1: ISH224-N3C0: truncated protein, SEQ ID NO: 12: methionine plus amino acids 111-514 of SEQ ID NO: 2 (protein, listed as Photobacterium sp.)
chain: MNVVAPSLEVYVDHASLPTLQQLMDIIKSEEENPTAQRYIAWGRIVPTDEQMKELNITSFALINNHTPADLVQEIVKQAQTKHRLNVKLSSNTAHSFDNLVPILKELNSFNNVTVTNIDLYDDGSAEYVNLYNWRDTLNKTDNLKIGKDYLEDVINGINEDTSNTGTSSVYNWQKLYPANYHFLRKDYLTLEPSLHELRDYIGDSLKQMQWDGFKKFNSKQQELFLSIVNFDKQKLQNEYNSSNLPNFVFTGTTVWAGNHEREYYAKQQINVINNAINESSPHYLGNSYDLFFKGHPGGGIINTLIMQNYPSMVDIPSKISFEVLMMTDMLPDAVAGIASSLYFTIPAEKIKFIVFTSTETITDRETALRSPLVQVMIKLGIVKEENVLFWADLPNCETGVCIAV
For B1, the “Specific activity (U/mg)” value ([1]; Crude enzyme solution) was 2.0 U/mg, the “Total activity (U)” value ([1]; Crude enzyme solution) was 4911 U and the “Specific activity (U/mg)” value ([1]; after Hydroxyapatite) was 151 U/mg. For the same molecule, the “Total activity (U)” value ([1]; after Hydroxyapatite) was 997 U, the “Specific activity (U/mg)” value [1, 3] was 264 U/mg and the “Total activity (U)” value [1, 3] was 808 U. The “Specific activity (U/mg)” value ([1]; after Q SEPHAROSE) was 26.5 U/mg, the “Total activity (U)” value ([1]; after Q SEPHAROSE) was 3614 U and the “fold higher specific activity than Pasteurella multocida-derived β-galactoside-α2,3-sialyltransferase (60 U/mg)” value ([1]; purified fraction) was “about 4.4 fold”. For the same molecule, the “fold higher specific activity than β-galactoside-α2,6-sialyltransferase derived from Photobacterium damselae strain JT0160 (5.5 U/mg)” value ([1]; purified fraction) was “about 48 fold”, the “sialyltransferase activity of the expressed clone (in words)” value [2] was “smallest clone that retained the activity” and the “sialyltransferase activity of the expressed clone (in words)” value ([2]; listed as ISH224-N3C0/pTrc) was “expressed sialyltransferase; also recorded: retained the activity”.
